According to patent US20250340652A1 (CHENGDU DI AO PHARMACEUTICAL GROUP, published 2025):
Residue numbers refer to the chain shown, from its start. Names and notes keep the numbering of the source.

B1: A61 (antibody, human IgG4, kappa)
heavy: not shown
light: DIVMTQSPLSLPVTLGQPASISCRSSQSLVKSDGNTYLSWFQQRPGQSPRRLIYKVSNRDSGVPDRFSGSGSGTDFTLKISRVEAEDVGVYYCMQGTHWPPTFGPGTKVDIKRTVAAPSVFIFPPSDEQLKSGTASVVCLLNNFYPREAKVQWKVDNALQSGNSQESVTEQDSKDSTYSLSSTLTLSKADYEKHKVYACEVTHQGLSSPVTKSFNRGEC
notes: also called P59375
B2: A61 (IgG4SP) (antibody)
heavy: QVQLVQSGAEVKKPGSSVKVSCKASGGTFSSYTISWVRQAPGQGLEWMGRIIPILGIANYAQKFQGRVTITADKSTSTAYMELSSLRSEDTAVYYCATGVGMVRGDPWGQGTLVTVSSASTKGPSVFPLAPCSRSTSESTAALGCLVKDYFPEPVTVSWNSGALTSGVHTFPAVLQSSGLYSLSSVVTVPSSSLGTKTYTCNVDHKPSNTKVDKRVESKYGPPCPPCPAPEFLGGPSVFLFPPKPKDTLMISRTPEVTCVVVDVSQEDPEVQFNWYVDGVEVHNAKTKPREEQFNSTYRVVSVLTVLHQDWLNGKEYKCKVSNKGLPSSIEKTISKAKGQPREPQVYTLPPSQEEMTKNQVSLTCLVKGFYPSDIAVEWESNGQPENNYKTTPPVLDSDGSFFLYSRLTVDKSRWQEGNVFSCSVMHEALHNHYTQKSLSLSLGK
light: B1 light
notes: IgG4SP (S228P in the hinge, already in the heavy chain entry); also called A61SP; P62298
B3: B90 (antibody, human IgG4, kappa)
heavy: not shown
light: DIQMTQSPSILSASVGDRVTLTCRASQSISSWLAWYQQTPGKAPRVLIYEASTLEVGVPSRFSGSGSGTDFTLTISSLQPEDFGTYFCQQYHTDSRTFGQGTILEIKRTVAAPSVFIFPPSDEQLKSGTASVVCLLNNFYPREAKVQWKVDNALQSGNSQESVTEQDSKDSTYSLSSTLTLSKADYEKHKVYACEVTHQGLSSPVTKSFNRGEC
notes: also called P59391
B4: B90 (IgG4SP) (antibody)
heavy: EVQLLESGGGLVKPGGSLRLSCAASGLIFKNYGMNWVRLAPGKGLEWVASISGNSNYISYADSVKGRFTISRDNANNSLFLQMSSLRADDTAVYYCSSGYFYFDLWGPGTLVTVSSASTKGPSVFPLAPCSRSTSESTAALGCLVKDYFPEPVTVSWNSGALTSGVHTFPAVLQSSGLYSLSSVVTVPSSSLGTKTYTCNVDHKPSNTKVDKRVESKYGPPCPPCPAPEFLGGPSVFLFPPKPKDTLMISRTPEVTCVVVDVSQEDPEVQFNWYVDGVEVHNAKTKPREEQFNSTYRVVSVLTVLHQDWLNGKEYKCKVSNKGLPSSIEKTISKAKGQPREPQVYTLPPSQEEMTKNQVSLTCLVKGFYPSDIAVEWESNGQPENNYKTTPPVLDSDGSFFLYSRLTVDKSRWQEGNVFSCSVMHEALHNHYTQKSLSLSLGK
light: B3 light
notes: IgG4SP (S228P in the hinge, already in the heavy chain entry); also called B90SP; P62303
B5: A156 (antibody, human IgG4, kappa)
heavy: not shown
light: AIQLTQSPSSLSASVGDRVTITCRASQGISSYLAWYQQKPGKAPKLLIFAASLLQRGVPSRFSGSGFGTDFTLTISGLQPEDFATYFCQQFNTYPITFGGGTKVEIKRTVAAPSVFIFPPSDEQLKSGTASVVCLLNNFYPREAKVQWKVDNALQSGNSQESVTEQDSKDSTYSLSSTLTLSKADYEKHKVYACEVTHQGLSSPVTKSFNRGEC
notes: also called P59378
B6: A156 (IgG4SP) (antibody)
heavy: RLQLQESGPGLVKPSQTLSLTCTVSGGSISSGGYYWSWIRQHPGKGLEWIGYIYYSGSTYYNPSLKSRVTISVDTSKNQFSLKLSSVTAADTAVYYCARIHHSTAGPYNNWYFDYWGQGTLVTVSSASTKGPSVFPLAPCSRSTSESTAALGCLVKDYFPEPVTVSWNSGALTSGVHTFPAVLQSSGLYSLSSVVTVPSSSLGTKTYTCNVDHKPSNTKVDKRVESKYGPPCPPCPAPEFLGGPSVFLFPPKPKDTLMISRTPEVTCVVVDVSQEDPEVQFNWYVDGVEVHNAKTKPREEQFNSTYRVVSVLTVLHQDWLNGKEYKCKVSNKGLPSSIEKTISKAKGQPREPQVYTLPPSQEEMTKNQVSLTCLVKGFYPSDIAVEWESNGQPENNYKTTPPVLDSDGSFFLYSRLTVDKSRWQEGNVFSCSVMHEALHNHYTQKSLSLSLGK
light: B5 light
notes: IgG4SP (S228P in the hinge, already in the heavy chain entry); also called A156SP; P62300
B7: B156 (antibody, human IgG4, kappa)
heavy: not shown
light: DIQLTQSPSSLSASIGDRVTITCRASQGISSFLAWYQQKPGKAPQLLIYAASTLQSGVPSRFSGSGSGTEFTLTISSLQPEDFATYYCQQFKIYPLTFGGGTKVEVKRTVAAPSVFIFPPSDEQLKSGTASVVCLLNNFYPREAKVQWKVDNALQSGNSQESVTEQDSKDSTYSLSSTLTLSKADYEKHKVYACEVTHQGLSSPVTKSFNRGEC
notes: also called P59397
B8: B156 (IgG4SP) (antibody)
heavy: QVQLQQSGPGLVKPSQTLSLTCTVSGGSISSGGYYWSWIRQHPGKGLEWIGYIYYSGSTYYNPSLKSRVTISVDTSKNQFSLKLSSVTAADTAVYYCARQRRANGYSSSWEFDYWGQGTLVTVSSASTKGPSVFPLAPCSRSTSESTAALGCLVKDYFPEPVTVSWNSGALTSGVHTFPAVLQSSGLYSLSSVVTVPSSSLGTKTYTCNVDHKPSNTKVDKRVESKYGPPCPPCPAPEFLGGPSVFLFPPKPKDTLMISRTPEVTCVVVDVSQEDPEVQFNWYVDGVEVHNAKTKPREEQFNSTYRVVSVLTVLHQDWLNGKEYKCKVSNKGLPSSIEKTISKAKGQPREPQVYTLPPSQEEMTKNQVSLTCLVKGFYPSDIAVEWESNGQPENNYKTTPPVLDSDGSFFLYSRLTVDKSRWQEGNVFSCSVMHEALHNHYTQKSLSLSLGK
light: B7 light
notes: IgG4SP (S228P in the hinge, already in the heavy chain entry); also called B156SP; P62304
B9: A26 (antibody, human IgG4, kappa, V domains shown)
VH: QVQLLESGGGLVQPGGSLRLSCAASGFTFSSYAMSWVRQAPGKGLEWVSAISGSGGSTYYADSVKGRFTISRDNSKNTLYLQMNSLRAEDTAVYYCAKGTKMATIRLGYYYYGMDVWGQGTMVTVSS
VL: DIVMTQSPLSLPVTPGEPASISCRSSQSLLHSNGRNYLDWYLQKPGQSPQLLIYLGSNRASGVSDRFSASGSGTDFTLQISRVEAEDVGIYYCMQALQTPWTFGQGTKVEVKR
notes: also called P59372
B10: A53 (antibody, human IgG4, kappa, V domains shown)
VH: EVQLLESGPGLVKPSQTLSLTCTVSGGSISSGGYYWSWIRQHPGKGLEWIGYIYYSGSTYYNPSLKSRVTISVDTSKNQFSLKLSSVTAADTAVYYCARDSRGRSYGMDVWGQGTMVTVSS
VL: DIQMTQSPSSLSASVGDRVTITCRASQSINNYLNWYQEKPGKAPKLLIYAASSLQSGVPSRFSGSGSGTDFTLTISSLQPEDFATYYCQQSYSYPFTFGPGTKVDIKR
notes: also called P59374
B11: A23 (antibody, human IgG4, kappa, V domains shown)
VH: QVQLVQSGAEVKKPGSSVKVSCKASGGTFSSYAISWVRQAPGQGLEWMGGIIPIFGTANYAQKFQGRVTITADESTSTAYMELSSLRSEDTAVYYCARGGGGRGMTSDWGQGTLVTVSS
VL: NIQLTQSPSSLSASVGDRVTITCRASQDISNYLAWFQQKPGKAPKSLIYAASSLQSGVPSRFSGSWSGTDFTLTISSLQPEDIATYYCQQYKRYPFIFGQGTKLEIKR
notes: also called P59371
B12: A21 (antibody, human IgG4, kappa, V domains shown)
VH: EVHLVESGPELVRPGASVTLSCKASGYTFTDYEMHWVKQTPVHGLEWIGAIDPETGGTAYNQKFKGKATLTADKSSSTAYMELRSLTSEDSAVYYCTTTYGNYWYFDVWGAGTLVTVSS
VL: DIQLTQSPSSVSASVGDRVTITCRASQNIENWLAWYQQKPGKAPKLLIYATSRLENDVPSRFSGSRSGTEFILTISSLQPEDFATYYCHQANGFPWTFGPGTKVDIKR
notes: also called P59369
B13: A44 (antibody, human IgG4, kappa, V domains shown)
VH: QVQLQESGPGLVKPSQTLSLTCTVSGGSISSGGYYWSWIRQHPGKGLEWIGYIYYSGSTYYNPSLKSRVTISVDTSKNQFSLKLSSVTAADTAVYYCARWGRGGSSWRFDIWGQGTMVTVSS
VL: AIQMTQSPSSLSASVGDRVTITCRASQALTYTLAWYQQKPGKAPRLLIHDASSLESGVPSRFSGSGSGTDFTLTITSLQPEDFATYYCQQFRSYPLTFGGGTKVEIKR
notes: also called P59373
B14: A22 (antibody, human IgG4, kappa, V domains shown)
VH: EVQLVESGAEVKKPGSSVKVSCKASGGTFSSYAISWVRQAPGQGLEWMGGIIPIFGTANYAQKFQGRVTITADESTSTAYMELSSLRSEDTAVYYCAFTSGSYYYFDYWGQGTLVTVSS
VL: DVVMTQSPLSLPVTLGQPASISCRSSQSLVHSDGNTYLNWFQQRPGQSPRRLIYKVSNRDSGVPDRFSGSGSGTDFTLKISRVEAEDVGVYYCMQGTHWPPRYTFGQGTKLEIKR
notes: also called P59370
B15: B44 (antibody, human IgG4, kappa, V domains shown)
VH: QVQLVQSGAEVKKPGASVKVSCKASGYTFTSYYMHWVRQAPGQGLEWMGIINPSGGSTSYAQKFQGRVTMTRDTSTSTVYMELSSLRSEDTAVYYCARGVSRRGAFDIWGQGTMVTVSS
VL: DVVMTQSPLSLPVTPGEPASISCRSSQSLLHRSGYNYLDWYVQKPGQSPQLLIYLGSIRAVGVPDRFSGSASGTDFTLRISRVEAEDVGIYYCMQALQTPPAFGGGTKVEIKR
notes: also called P59386
B16: B145 (antibody, human IgG4, kappa, V domains shown)
VH: B13 VH with V2L, W100G, G101K, G103D, S105Y, S106N, W107Y, R108Y, I111Y, M117L
VL: DIVMTQSPSSLSASVGDRVTITCQASQDISNYLNWYQQKPGKAPKLLIYDASSLESGVPSKFSGSRSGTDFTLTISSLQPEDSATYYCQQYRSYPITFGGGTKVEIKR
notes: also called P59396

What follows are binders tested against T1, CC1H-Biotin (human, UniProt Q13018 21-367, biotin by EZ-Link Sulfo-NHS-LC-Biotin, 1.80 mol Biotin/mol protein; sites not given) (assay: BLI (Octet N1), CC1H-Biotin on SA sensor, antibody 76.6-8.5 nM).
T1 construct: also called biotin-labeled CC1H
Protocol: Sartorius Octet® N1 molecular interaction instrument was used, the SA sensor (Sartorius, Octet® Streptavidin (SA) Biosensor, 18-5019) was selected.
The sensor was immersed in a PBSTB buffer (0.02% Tween-20 and 0.1% BSA were added in the PBS buffer) to be pre-wetted for 10 min or longer, and loaded onto the molecular interaction instrument.
The association constant (Ka), dissociation constant (Kd), and affinity constant (KD) were calculated and illustrated in Table 5 for details.

| Kd [pM] | koff [s⁻¹] | kon [M⁻¹ s⁻¹] | Binder |
| --- | --- | --- | --- |
| 17.8 | 1.89e-05 | 1.06e+06 | B1 |
| 126 | 8.17e-05 | 648000 | B2 |
| 841 | 0.000512 | 608000 | B3 |
| 6590 | 0.000639 | 97000 | B4 |
| 158 | 0.000102 | 644000 | B5 |
| 456 | 0.000169 | 371000 | B6 |
| 242 | 0.000125 | 516000 | B7 |
| < 1 | < 1e-07 | 654000 | B8 |

What follows are binders tested against T2, CC1H, major antigenic region of PLA2R (human, UniProt Q13018 21-367) (assay: indirect ELISA, CC1h coated at 2 ug/mL, anti-human IgG Fc HRP).
T2 construct: Secreted from CHO-S cells, purified on Ni column; also called CCIh
Protocol: (§1) 30 μL of CC1h (2 μg/mL, diluted with 1*PBS) was added to the reaction wells of the ELISA plate, and the plate was sealed and incubated at 4° C. overnight. The plate was washed with PBST for 3 times, and the liquid in the wells was discarded. 5% PBSM was added to block the ELISA plate at room temperature for 2 hours. The plate was washed with PBST for 3 times by adding 30 μL of Abs (diluted with 1*PBS) to each well of the ELISA plate, and the plate was incubated at room temperature for 60 min. The plate was washed with PBST for 3 times, 30 μL of anti-human IgG Fc HRP (diluted with 1% PBSM at a ratio of 1:8000) was added to each well, and incubated at room temperature for 60 min. TMB was added and the reaction was stopped with 2M blocking solution and the OD value was detected at 450 nm. Recombinant Ipilimumab (Sanyou Biopharmaceuticals Co., Ltd.) was used as a negative control. The test results were illustrated in Table 2 as well as FIG. 4 and FIG. 5.

| EC50 [ng/mL] | Binder |
| --- | --- |
| 16 | B9 |
| 4.6 | B1 |
| 10.3 | B2 |
| 2.96 | B3 |
| 19.5 | B4 |
| 6.9 | B5 |
| 14.7 | B6 |
| 4.03 | B10 |
| 27.6 | B11 |
| 10.5 | B7 |
| 8.12 | B8 |
| 8.49 | B12 |
| 4.79 | B13 |

The binders below were run against T2, CC1H, major antigenic region of PLA2R (assay: indirect ELISA, CC1h coated at 2 µg/mL, anti-human IgG Fc HRP, ΔOD450).
Protocol: The human anti-human PLA2R antibody after phage screening and expression in Example 2 was measured in terms of the ability of binding to CC1h using the indirect ELISA method.
as §1

| binding result | Binder |
| --- | --- |
| no binding | B14 |
| no binding | B15 |
| no binding | B16 |
